Paper doi:10.1101/2025.04.25.650662 (bioRxiv, 2025)

Assays:
[1] = molecular target: Leucine-rich repeat containing, G protein-coupled receptor 5 (LGR5), human, on HEK293T cells (HEK293-LGR5-DeltaC) (human) (UniProt O75473); assay: whole-cell binding assay
[2] = molecular target: Leucine-rich repeat containing, G protein-coupled receptor 4 (LGR4), human, on HEK293T cells (human, UniProt Q9BXB1 25-951); assay: whole-cell binding assay

Chain of Leucine-rich repeat containing, G protein-coupled receptor 5 (LGR5), human, on HEK293T cells (HEK293-LGR5-DeltaC) (human) (O75473 22-907, stated change not applied): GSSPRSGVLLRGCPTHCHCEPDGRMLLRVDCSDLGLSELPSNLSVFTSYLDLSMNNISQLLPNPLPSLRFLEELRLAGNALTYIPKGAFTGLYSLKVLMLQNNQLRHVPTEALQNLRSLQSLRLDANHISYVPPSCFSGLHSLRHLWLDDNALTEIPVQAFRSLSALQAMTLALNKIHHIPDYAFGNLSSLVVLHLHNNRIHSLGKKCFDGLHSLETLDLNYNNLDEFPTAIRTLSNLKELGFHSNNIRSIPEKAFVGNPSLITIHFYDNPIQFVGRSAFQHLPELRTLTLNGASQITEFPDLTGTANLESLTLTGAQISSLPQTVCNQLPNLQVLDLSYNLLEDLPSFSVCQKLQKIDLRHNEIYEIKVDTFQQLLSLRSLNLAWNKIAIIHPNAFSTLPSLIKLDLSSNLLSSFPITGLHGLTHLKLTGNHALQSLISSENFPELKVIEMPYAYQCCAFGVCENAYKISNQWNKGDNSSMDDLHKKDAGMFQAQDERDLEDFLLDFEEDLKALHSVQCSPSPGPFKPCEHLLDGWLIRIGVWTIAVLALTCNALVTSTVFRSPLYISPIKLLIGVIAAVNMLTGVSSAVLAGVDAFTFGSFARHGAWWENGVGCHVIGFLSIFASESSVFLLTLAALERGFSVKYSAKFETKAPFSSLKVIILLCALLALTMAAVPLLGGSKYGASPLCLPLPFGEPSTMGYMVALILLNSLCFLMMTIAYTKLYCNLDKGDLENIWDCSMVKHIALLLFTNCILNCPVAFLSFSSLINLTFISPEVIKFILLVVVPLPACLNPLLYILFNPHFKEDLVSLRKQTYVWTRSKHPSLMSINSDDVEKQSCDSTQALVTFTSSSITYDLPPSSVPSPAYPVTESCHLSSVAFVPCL

B1: R232, RSPO2 furin domain M68T/Q70R double mutant fused to human IgG1-Fc (Fc fusion)
chain: CKGCLSCSKDNGCSRCQQKLFFFLRREGTRRYGECLHSCPSGYYGHRAPDMNRCARCRIENCDSCFSKDFCTKCKVGFYLHRGRCFDECPDGFAPLEETMEC
- Kd [1]: 0.3 nM
- Kd [2]: 0.2 nM
